In PMC5065529, “Wnt Signalosome Assembly by DEP Domain Swapping of Dishevelled” (Molecular Cell, 2016) one finds screen value data, which are given here for six variants.

B1: SNAP-FZD5 (Frizzled 5), wild type [human] / DEP_(414–507)-GFP, minimal DEP domain of DVL2 [human] (parent)
chain 1: GRGLSVHTDMASVTKAMAAPESGLEVRDRMWLKITIPNAFLGSDVVDWLYHHVEGFPERREARKYASGLLKAGLIRHTVNKITFSEQCYYVFGD
chain 2: ASKAPVCQEITVPMCRGIGYNLTHMPNQFNHDTQDEAGLEVHQFWPLVEIQCSPDLRFFLCSMYTPICLPDYHKPLPPCRSVCERAKAGCSPLMRQYGFAWPERMSCDRLPVLGRDAEVLCMDYNRSEATTAPPRPFPAKPTLPGPPGAPASGGECPAGGPFVCKCREPFVPILKESHPLYNKVRTGQVPNCAVPCYQPSFSADERTFATFWIGLWSVLCFISTSTTVATFLIDMERFRYPERPIIFLSACYLCVSLGFLVRLVVGHASVACSREHNHIHYETTGPALCTIVFLLVYFFGMASSIWWVILSLTWFLAAGMKWGNEAIAGYAQYFHLAAWLIPSVKSITALALSSVDGDPVAGICYVGNQNLNSLRGFVLGPLVLYLLVGTLFLLAGFVSLFRIRSVIKQGGTKTDKLEKLMIRIGIFTLLYTVPASIVVACYLYEQHYRESWEAALTCACPGHDTGQPRAKPEYWVLMLKYFMCLVVGITSGVWIWSGKTVESWRRFTSRCCCRPRRGHKSGGAMAAGDYPEASAALTGRTGPPGPAATYHKQVSLSHV

The variants in the assay derive from B1. The experiment in a line: FZD5-dependent PM recruitment of DEP-GFP (cell scoring). The settings on record: with DEP_(414–507)-GFP, 100 cells scored in each case.

With chain 2 ASKAPVCQEITVPMCRGIGYNLTHMPNQFNHDTQDEAGLEVHQFWPLVEIQCSPDLRFFLCSMYTPICLPDYHKPLPPCRSVCERAKAGCSPLMRQYGFAWPERMSCDRLPVLGRDAEVLCMDYNRSEATTAPPRPFPAKPTLPGPPGAPASGGECPAGGPFVCKCREPFVPILKESHPLYNKVRTGQVPNCAVPCYQPSFSADERTFATFWIGLWSVLCFISTSTTVATFLIDMEAFRYPERPIIFLSACYLCVSLGFLVRLVVGHASVACSREHNHIHYETTGPALCTIVFLLVYFFGMASSIWWVILSLTWFLAAGMKWGNEAIAGYAQYFHLAAWLIPSVKSITALALSSVDGDPVAGICYVGNQNLNSLRGFVLGPLVLYLLVGTLFLLAGFVSLFRIRSVIKQGGTKTDKLEKLMIRIGIFTLLYTVPASIVVACYLYEQHYRESWEAALTCACPGHDTGQPRAKPEYWVLMLKYFMCLVVGITSGVWIWSGKTVESWRRFTSRCCCRPRRGHKSGGAMAAGDYPEASAALTGRTGPPGPAATYHKQVSLSHV [chain 2 R237A], the screen value was 12 % of cells (parent: 52, read off a plot) and 77 % of cells (parent: 88, read off a plot).

Consider chain 2 ASKAPVCQEITVPMCRGIGYNLTHMPNQFNHDTQDEAGLEVHQFWPLVEIQCSPDLRFFLCSMYTPICLPDYHKPLPPCRSVCERAKAGCSPLMRQYGFAWPERMSCDRLPVLGRDAEVLCMDYNRSEATTAPPRPFPAKPTLPGPPGAPASGGECPAGGPFVCKCREPFVPILKESHPLYNKVRTGQVPNCAVPCYQPSFSADERTFATFWIGLWSVLCFISTSTTVATFLIDMERFRYPERPIIFLSACYLCVSLGFLVRLVVGHASVACSREHNHIHYETTGPALCTIVFLLVYFFGMASSIWWVILSLTWFLAAGMKWGNEAIAGYAQYFHLAAWLIPSVKSITALALSSVDGDPVAGICYVGNQNLNSLRGFVLGPLVLYLLVGTLFLLAGFVSLFRIRSVIKQGGTKTDKLEKLMIRIGIFTLLYTVPASIVVACYLYEQHYRESWEAALTCACPGHDTGQPRAKPEYWVLMLKYFMCLVVGITSGVWIWSGKTVESWRAFTSRCCCRPRRGHKSGGAMAAGDYPEASAALTGRTGPPGPAATYHKQVSLSHV [chain 2 R506A], for which the screen value is 49 % of cells (parent: 52, read off a plot) and 96 % of cells (parent: 88, read off a plot).

With chain 2 ASKAPVCQEITVPMCRGIGYNLTHMPNQFNHDTQDEAGLEVHQFWPLVEIQCSPDLRFFLCSMYTPICLPDYHKPLPPCRSVCERAKAGCSPLMRQYGFAWPERMSCDRLPVLGRDAEVLCMDYNRSEATTAPPRPFPAKPTLPGPPGAPASGGECPAGGPFVCKCREPFVPILKESHPLYNKVRTGQVPNCAVPCYQPSFSADERTFATFWIGLWSVLCFISTSTTVATFLIDMERFRYPERPIIFLSACYLCVSLGFLVRLVVGHASVACSREHNHIHYETTGPALCTIVFLLVYFFGMASSIWWVILSLTWFLAAGMKWGNEAIAGYAQYFHLAAWLIPSVKSITALALSSVDGDPVAGICYVGNQNLNSLRGFVLGPLVLYLLVGTLFLLAGFVSLFRIRSVIKQGGTKTDKLEKLMIRIGIFTLLYTVPASIVVACYLYEQHYRESWEAALTCACPGHDTGQPRAKPEYWVLMLKYFMCLVVGITSGVWIWSGKTVEAWRRFTSRCCCRPRRGHKSGGAMAAGDYPEASAALTGRTGPPGPAATYHKQVSLSHV [chain 2 S503A], the screen value was 50 % of cells (parent: 52, read off a plot) and 93 % of cells (parent: 88, read off a plot).

Regarding chain 2 ASKAPVCQEITVPMCRGIGYNLTHMPNQFNHDTQDEAGLEVHQFWPLVEIQCSPDLRFFLCSMYTPICLPDYHKPLPPCRSVCERAKAGCSPLMRQYGFAWPERMSCDRLPVLGRDAEVLCMDYNRSEATTAPPRPFPAKPTLPGPPGAPASGGECPAGGPFVCKCREPFVPILKESHPLYNKVRTGQVPNCAVPCYQPSFSADERTFATFWIGLWSVLCFISTSTTVATFLIDMERFRYPERPIIFLSACYLCVSLGFLVRLVVGHASVACSREHNHIHYETTGPALCTIVFLLVYFFGMASSIWWVILSLTWFLAAGMKWGNEAIAGYAQYFHLAAWLIPSVKSITALALSSVDGDPVAGICYVGNQNLNSLRGFVLGPLVLYLLVGTLFLLAGFVSLFRIRSVIKQGGTKTDKLEKLMIRIGIFTLLYTVPASIVVACYLYEQHYRESWEAALTCACPGHDTGQPRAKPEYWVLMLKYFMCLVVGITSGVWIWSGKTVESWRRFTSACCCRPRRGHKSGGAMAAGDYPEASAALTGRTGPPGPAATYHKQVSLSHV [chain 2 R510A], the screen value is 49 % of cells (parent: 52, read off a plot) and 85 % of cells (parent: 88, read off a plot).

For chain 2 ASKAPVCQEITVPMCRGIGYNLTHMPNQFNHDTQDEAGLEVHQFWPLVEIQCSPDLRFFLCSMYTPICLPDYHKPLPPCRSVCERAKAGCSPLMRQYGFAWPERMSCDRLPVLGRDAEVLCMDYNRSEATTAPPRPFPAKPTLPGPPGAPASGGECPAGGPFVCKCREPFVPILKESHPLYNKVRTGQVPNCAVPCYQPSFSADERTFATFWIGLWSVLCFISTSTTVATFLIDMERFRYPERPIIFLSACYLCVSLGFLVRLVVGHASVACSREHNHIHYETTGPALCTIVFLLVYFFGMASSIWWVILSLTWFLAAGMKWGNEAIAGYAQYFHLAAWLIPSVKSITALALSSVDGDPVAGICYVGNQNLNSLRGFVLGPLVLYLLVGTLFLLAGFVSLFRIRSVIKQGGTKTDKLEKLMIRIGIFTLLYTVPASIVVACYLYEQHYRESWEAALTCACPGHDTGQPRAKPEYWVLMLKYFMCLVVGITSGVWIWAGKTVESWRRFTSRCCCRPRRGHKSGGAMAAGDYPEASAALTGRTGPPGPAATYHKQVSLSHV [chain 2 S497A], the screen value is 60 % of cells (parent: 52, read off a plot) and 90 % of cells (parent: 88, read off a plot).

For chain 2 ASKAPVCQEITVPMCRGIGYNLTHMPNQFNHDTQDEAGLEVHQFWPLVEIQCSPDLRFFLCSMYTPICLPDYHKPLPPCRSVCERAKAGCSPLMRQYGFAWPERMSCDRLPVLGRDAEVLCMDYNRSEATTAPPRPFPAKPTLPGPPGAPASGGECPAGGPFVCKCREPFVPILKESHPLYNKVRTGQVPNCAVPCYQPSFSADERTFATFWIGLWSVLCFISTSTTVATFLIDMERFAYPERPIIFLSACYLCVSLGFLVRLVVGHASVACSREHNHIHYETTGPALCTIVFLLVYFFGMASSIWWVILSLTWFLAAGMKWGNEAIAGYAQYFHLAAWLIPSVKSITALALSSVDGDPVAGICYVGNQNLNSLRGFVLGPLVLYLLVGTLFLLAGFVSLFRIRSVIKQGGTKTDKLEKLMIRIGIFTLLYTVPASIVVACYLYEQHYRESWEAALTCACPGHDTGQPRAKPEYWVLMLKYFMCLVVGITSGVWIWSGKTVESWRRFTSRCCCRPRRGHKSGGAMAAGDYPEASAALTGRTGPPGPAATYHKQVSLSHV [chain 2 R239A], the screen value was 11 % of cells (parent: 52, read off a plot) and 56 % of cells (parent: 88, read off a plot).
